{"source": "the nanobody polyreactivity screen of Harvey et al. (2022)"}
{"assay": "yeast display, Sf9 membrane polyspecificity reagent, FACS + sequencing; frameworks hold sequencing errors", "summary_of_the_method": "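Synthetic nanobody libraries on Saccharomyces cerevisiae BJ5465 were galactose-induced for 36–48 hours, stained 1 hour at 4 °C with 10% biotinylated, detergent-solubilized Sf9 membrane reagent and enriched on streptavidin microbeads. FACS then separated cells into low and high (top ~1%) gates by anti-HA (expression) and streptavidin (reagent binding) fluorescence. Genes were colony-PCR amplified, MiSeq 2 × 250 sequenced and CDR-length filtered. A clone's polyreactivity label is that of its gate of origin.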"}
{"sequence": "QVQLVESGGGLVQAGGSLRLSCAASGRTFSAYAMGWYRQAPGKERELVARITSVDSTNYADSVKGRFTISRDNAKNTVYLLMNSLKPEDTAVYYCNATFGYPFVDYDDYWGQGTQVTVSS", "polyreactivity (PSR sort gate)": "low polyreactivity"}
{"sequence": "QVQLVESGGGLVQAGGSLRLSCAASGRTFSFYAMGWYRQAPGKERELVAGIDWDDGSTSYADSVKGRFTISRDNAKNTVYLQMNSLKPEDTAVYYCAADIGYDVYNDYDYWGQGTQVTVSS", "polyreactivity (PSR sort gate)": "low polyreactivity"}
{"sequence": "QVQLVESGGGLVQAGGSLRLSCAASGRTFSGNAMGWYRQAPGKERELVAAINWRGGRTYYADSVKGRFTISRDNAKNTVYLQMNSLKPEDTAVYYCAVSAYKGYDYWGQGTQVTVSS", "polyreactivity (PSR sort gate)": "high polyreactivity"}
{"sequence": "QVQLVESGGGLVQAGGSLRLSCAASGRTFSGNARGWYRQAPGKERELVATITRRGGSTYYADSVKGRFTISRDNAKNTVYLQMNSLKPEDTAVYYCAARRVVNGGQGYESWGQGTQVTVSS", "polyreactivity (PSR sort gate)": "high polyreactivity"}
{"sequence": "QVQLVESGGGLVQAGGSLRLSCAASGRTFSGYAMGWDRQAPGKERELDAAISRGGSTNYADSVKGRFTISRDNAKNTVYLQMNSLKPEDTAVYYCAVRVYYGWAQPGYYYWGQGTQVTVSS", "polyreactivity (PSR sort gate)": "high polyreactivity"}
{"sequence": "QVQLVESGGGLVQAGGSLRLSCAASGRTFSGYAMGWYRQAPGKERELVAAISSGGGSTYYADSVKGRFTISRDNAKNSVYLQMNSLKPEDTAVYYCAADGYPGDYDYWGQGTQVTVSS", "polyreactivity (PSR sort gate)": "low polyreactivity"}
{"sequence": "QVQLVESGGGLVQAGGSLRLSCAASGRTFSGYVMGWYRQAPGKERELVATINGSGASTYYADSVKGRFTISRDNAKNTVYLQTNSLKPEDTAVYYCAAKRYRPKYEYYYWGQGTQVTVSS", "polyreactivity (PSR sort gate)": "high polyreactivity"}
{"sequence": "QVQLVESGGGLVQAGGSLRLSCAASGRTFSHNAMGWYRQAPGKERELVATINSGGSTYADSVKGRFTISRDNAKNTVYLQMNSLKPEDTAVYYCNAAHGSRAFFGGYDYWGQGTQVTVSS", "polyreactivity (PSR sort gate)": "high polyreactivity"}
{"sequence": "QVQLVESGGGLVQAGGSLRLSCAASGRTFSKNAMGWYRQAPGKERELVADISRRGGRTYYADSVNGRFTISRDNAKNTVYLQMNSLKPEDTAVYYSAARRRGSVGVGYAYPYNYWGQGTQVTVSS", "polyreactivity (PSR sort gate)": "high polyreactivity"}
{"sequence": "QVQLVESGGGLVQAGGSLRLSCAASGRTFSNNAMGWYRQAPGKERELVAAISSTGGRTYYADSVKGRFTISRDNAKNTGYLQLNSLKPEDTAVYYCAATYVHYPSLGYDYWGQGTQVTVSS", "polyreactivity (PSR sort gate)": "high polyreactivity"}
{"sequence": "QVQLVESGGGLVQAGGSLRLSCAASGRTFSPYAMAWYRQAPGKEREFVAAIRVRGGSTYYADSVKGRFTISRDNAKNTVYLQMNSLKPEDTAVYYCNAQYLVYNGYPYLYDYWGQGTQVTVSS", "polyreactivity (PSR sort gate)": "high polyreactivity"}
{"sequence": "QVQLVESGGGLVQAGGSLRLSCAASGRTFSPYAMGWYRQAPGKERELVAAITNGGSTHYADSVKGRFTISRDNAKNTVYLQMNSLKPEDTAVYYPYDYWGQGTQVTVSS", "polyreactivity (PSR sort gate)": "low polyreactivity"}
{"sequence": "QVQLVESGGGLVQAGGSLRLSCAASGRTFSPYAMGWYRQAPGKERELVAAITSRGASTYYADSVKGRFTISRDNAKNTVYLQMNSLKPEDTAVYDCNSGRTYRRLGDYWGQGTQVTVSS", "polyreactivity (PSR sort gate)": "high polyreactivity"}
{"sequence": "QVQLVESGGGLVQAGGSLRLSCAASGRTFSQNAMGWYRQAPGKERELVAAISWSGGRTYYADSVKGRFTISRDNAKNTVYLQMNSLKPEDTAVYYCAKSQHRTYYYWGQGTQVTVSS", "polyreactivity (PSR sort gate)": "high polyreactivity"}
{"sequence": "QVQLVESGGGLVQAGGSLRLSCAASGRTFSQYAMGWYRQAPRKERELVAAISWGGRTYYADSVKGRFTISRDNAKNTVYLQMNSLKPEDTAVYYCAASSKLTYYEENHWGQGTQVTVSS", "polyreactivity (PSR sort gate)": "high polyreactivity"}
{"sequence": "QVQLVESGGGLVQAGGSLRLSCAASGRTFSRNAMGRYRQAPGKVRELVATISSSGVRTYYADSVKGRFTMSRDNAKNTVYLQMNSLKPEETAVYYWAAAWRYYSAASGYDYWGQGTLVTVSS", "polyreactivity (PSR sort gate)": "low polyreactivity"}
{"sequence": "QVQLVESGGGLVQAGGSLRLSCAASGRTFSRYAMGWYRQAPGKERELVAAISKSSGTTSYADSVKGRFTISRDNAKNTVYLQMKSQKPEDTAVYYCAAGITGRYYGVRFSEDYWGQGTQVTVSS", "polyreactivity (PSR sort gate)": "high polyreactivity"}
{"sequence": "QVQLVESGGGLVQAGGSLRLSCAASGRTFSRYAMGWYRQAPGKERELVAAISSSGGSTYYADSVKGRFTISRDNAKNTVYLQMNSLKPEDTAVYYCAKYFIRDNRYDYWGQGTQVTVSS", "polyreactivity (PSR sort gate)": "high polyreactivity"}
{"sequence": "QVQLVESGGGLVQAGGSLRLSCAASGRTFSRYTMGWYRQAPGKERELVARISQRGGSTYYADSVKGRFTISRDYAKNTVYLQMNSLKPEDTAVYYCAKKTYSPYGGYDSWGQGTQVTVSS", "polyreactivity (PSR sort gate)": "high polyreactivity"}
{"sequence": "QVQLVESGGGLVQAGGSLRLSCAASGRTFSSYTMGWYRQAPGKERELVAAISWRGGSTYYADSVKGRFTISRDNAKYTVYLQMTSLKPEDTAVYYCNADVYSTYYNYNYWGQGTQVTVSS", "polyreactivity (PSR sort gate)": "high polyreactivity"}
{"sequence": "QVQLVESGGGLVQAGGSLRLSCAASGRTFSTNAMGLYRQAPGKERELVAAISASGGSTYYADSVKGRFTISRDNAKTTVYLQMNSLKPEDTAVYYCAAYPGQWRTGYDYWGQGTQVTVSS", "polyreactivity (PSR sort gate)": "high polyreactivity"}
{"sequence": "QVQLVESGGGLVQAGGSLRLSCAASGRTFSTNAMGWYRQAPGKEREFVAAITGSGGSTYYADSVKGRFTISRDNAKNTVYLQMNSLKPEDTAVYYCAKRSAWHTYRYGYWGQGTQVTVSS", "polyreactivity (PSR sort gate)": "high polyreactivity"}
{"sequence": "QVQLVESGGGLVQAGGSLRLSCAASGRTFSVNAMGWYRQAPGKERELVAAISWDGGSTYYADSVKGRFTISRDNAKNTVYLQMNSLKPVDTAVYYCNKDLYYAYDYWGQGTQVTVSS", "polyreactivity (PSR sort gate)": "low polyreactivity"}
{"sequence": "QVQLVESGGGLVQAGGSLRLSCAASGRTFSVNDMGWYRQAPWKEREFVAAISFSGGSTYYADSVKGRFTISRDNAKNTVYLLMNSLKPEDSAVYYSAAEAYPSWFYVITGFGIYDYWGQGTQVTGSS", "polyreactivity (PSR sort gate)": "high polyreactivity"}
{"sequence": "QVQLVESGGGLVQAGGSLRLSCAASGRTFSVYAKGWYRQAPGKERELVAGITSGGSTNYADSVKGRFTISRDNAKNTVYLQMNSLKPEDTAVYYCAAENVYAGFGFVSIGDYWGHGTQVTVSS", "polyreactivity (PSR sort gate)": "low polyreactivity"}
{"sequence": "QVQLVESGGGLVQAGGSLRLSCAASGRTFSVYTMGWYREAPGQERELVAAISSTGRTNYADSVKGRFTISRDNAKNTVYLQMNSQKPEATAVYDCNAGVRNSYTRHALVTAYYLYYYWRQGTQVTVSS", "polyreactivity (PSR sort gate)": "high polyreactivity"}
{"sequence": "QVQLVESGGGLVQAGGSLRLSCAASGRTFSYAMGWYRQAPGKERELVAAISSGARTYYADSVKGRFTISRDNAKNTVYLQMNSLIPEDTAVYYCNARSRYEGLNYWGHGTQVTVSS", "polyreactivity (PSR sort gate)": "high polyreactivity"}
{"sequence": "QVQLVESGGGLVQAGGSLRLSCAASGRTFSYAMGWYRQAPGKERELVAGISWSGGRTYYADSVKGRFTISRDNAKNTVYLQMNSLKPEDTAVYYCAAGGRARTYYYWGQGTQVTVSS", "polyreactivity (PSR sort gate)": "high polyreactivity"}
{"sequence": "QVQLVESGGGLVQAGGSLRLSCAASGRTFSYNAMGWYRQAPGKERELVAAINWRAGRTYYADSVKGRFTISRDNAKNTVYLQMNSLKPEDTAVYYCNARSGRGQAYGYWGQGTQVTVSS", "polyreactivity (PSR sort gate)": "high polyreactivity"}
{"sequence": "QVQLVESGGGLVQAGGSLRLSCAASGRTFSYNAMGWYRQAPGKERELVAAITSSGGGTSYADSVKGRFTISRDNAKNTVYLQMNSLKPEDTAVYYCNRVLPHPDGYGVGARGYWGQGTQVTVSS", "polyreactivity (PSR sort gate)": "high polyreactivity"}
{"sequence": "QVQLVESGGGLVQAGGSLRLSCAASGRTFSYNTMGWYRQAPGTERELVARITWGGGSTNYADSVKGRFTISRDNAKNTFYLQMNSLKPEDTAVYYCAAGPSVPYGPQKVDYWGQGTQVTVSS", "polyreactivity (PSR sort gate)": "low polyreactivity"}
{"sequence": "QVQLVESGGGLVQAGGSLRLSCAASGRTFSYYTMGWYRQAPGKERELVAAITSSGGSTYYADSVKGRFTISRDNAKNTVYLQMNSLKPEDTAVYYCAVLNYAGKYYYWGQGTQVTVSS", "polyreactivity (PSR sort gate)": "high polyreactivity"}
{"sequence": "QVQLVESGGGLVQAGGSLRLSCAASGRTFTAYAMGWYRQAPGKERELVASISSGVTYADSVKGRFTISRDNAKNTVYLQMTSLKPEDTAVYYCAARLWYVQGYVPYVHHRFDYWGQGTQVTVSS", "polyreactivity (PSR sort gate)": "low polyreactivity"}
{"sequence": "QVQLVESGGGLVQAGGSLRLSCAASGRTFTCYAMGWYRQAPGKERELVATAITSGGSTNYADSVKGRFTISRDNAKNTVYLQMISLKPEDTAVYYCAAVPTEFGNRLEYDYWGQGTQVTVSS", "polyreactivity (PSR sort gate)": "low polyreactivity"}
{"sequence": "QVQLVESGGGLVQAGGSLRLSCAASGRTFTFYTMGWDRQAPGKERELVARITGGGSTYYADSVKGRFTISRDNAKNTVYLQMNSLKPEDTAVYYCAAASGTKRLYRGTRGDYWGQGTQVTVSS", "polyreactivity (PSR sort gate)": "low polyreactivity"}
{"sequence": "QVQLVESGGGLVQAGGSLRLSCAASGRTFTGNAMGCYRQAPGKERELVAAISTSGTRTSYADSVKGRFTISRDNAKNTVYLQMNSLKPEDTAVYYCAALRKSLYRTYTYDYWGQGTQVTVSS", "polyreactivity (PSR sort gate)": "high polyreactivity"}
{"sequence": "QVQLVESGGGLVQAGGSLRLSCAASGRTFTGNAMGWYRQATGKERELVAAINSGGGRTFYADSVKGRFTISRDNAKNTVYLQMTSLKPEDTAVYYCNAVKYRSYYWGQGTQVTVSS", "polyreactivity (PSR sort gate)": "high polyreactivity"}
{"sequence": "QVQLVESGGGLVQAGGSLRLSCAASGRTFTGYAMGWYRKAPGKERELVAAIRRTASTYYADSVKGRFTISRDNAKNTVYLQMNSLKPEDTAVYYCAVRAAHRGTYYYWGQGTQVTVSS", "polyreactivity (PSR sort gate)": "high polyreactivity"}
{"sequence": "QVQLVESGGGLVQAGGSLRLSCAASGRTFTGYAMGWYRQAPGKERELVAAISRRGASTYYADSVKGRFTISRDNAKNTVYLQMNSLKPEDTAVYYCAAYLYGLWSVGRDYWGQGTQVTVSS", "polyreactivity (PSR sort gate)": "high polyreactivity"}
{"sequence": "QVQLVESGGGLVQAGGSLRLSCAASGRTFTGYAMGWYRQAPGKERELVASISRRGGSTYYADSVKGRFTISRDNAKNTVYLQMNSLKPEDTAVYSCAADSVRHTYSWWYAVDYWGQGTQVTVSS", "polyreactivity (PSR sort gate)": "high polyreactivity"}
{"sequence": "QVQLVESGGGLVQAGGSLRLSCAASGRTFTGYTKGWYRQAPGKEREFVAAISSNGGRTYYADSVKGRFTISRDNAKNTVYLQMNSLKPEDTAVYYCAARYTFWGQGTQVTVSS", "polyreactivity (PSR sort gate)": "high polyreactivity"}
{"sequence": "QVQLVESGGGLVQAGGSLRLSCAASGRTFTIYAMGWYRQAPGKERDLVAAITRSGGGTYYADSVKGRFTISRDNAKNTVYLQMNRLKPEDTAVYYCARDKHWFYGVIGPEDYWGQGTQVTVSS", "polyreactivity (PSR sort gate)": "low polyreactivity"}
{"sequence": "QVQLVESGGGLVQAGGSLRLSCAASGRTFTIYAMGWYRQAPGKERELVAGITSAGRTYYADSVKGRFTISRDNAKNTVYSQMNSLNPEDTAVDYCAASGSYAIVWGDQYYGYYYWGQGTQVTVSS", "polyreactivity (PSR sort gate)": "high polyreactivity"}
